Columns and labels:
[1] = molecular target: T1, endogenous Gαq in the mouse heart (mouse (endogenous, in the hearts of the …, UniProt P21279 1-359)); test: anti-FLAG immunoprecipitation from cardiac lysates of TgβARKnt mice 4 weeks after Sham or TAC, western blot with anti-Gαq antibody
T1 construct: Endogenous protein in cardiac lysates, detected by western blot with anti-Gαq antibody; also called Gq; Gaq
T1 sequence (looked up): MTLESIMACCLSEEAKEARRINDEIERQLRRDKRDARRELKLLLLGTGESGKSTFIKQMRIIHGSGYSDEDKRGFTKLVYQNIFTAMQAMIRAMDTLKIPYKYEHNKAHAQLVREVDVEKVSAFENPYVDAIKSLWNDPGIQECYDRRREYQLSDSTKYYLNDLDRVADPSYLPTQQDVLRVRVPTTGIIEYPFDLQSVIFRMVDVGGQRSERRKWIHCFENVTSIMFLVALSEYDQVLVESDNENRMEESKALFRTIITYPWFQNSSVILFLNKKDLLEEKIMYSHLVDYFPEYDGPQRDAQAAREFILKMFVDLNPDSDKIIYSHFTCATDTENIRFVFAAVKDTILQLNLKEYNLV

[2] = molecular target: T2, full-length GRK2 (endogenous, mouse heart) (mouse (endogenous, in the hearts of the …, UniProt Q99MK8 1-689)); test: anti-FLAG immunoprecipitation from cardiac lysates of TgβARKnt mice 4 weeks after Sham or TAC, western blot
T2 construct: GRK2 in the heart'; also called βARK1
T2 sequence (looked up): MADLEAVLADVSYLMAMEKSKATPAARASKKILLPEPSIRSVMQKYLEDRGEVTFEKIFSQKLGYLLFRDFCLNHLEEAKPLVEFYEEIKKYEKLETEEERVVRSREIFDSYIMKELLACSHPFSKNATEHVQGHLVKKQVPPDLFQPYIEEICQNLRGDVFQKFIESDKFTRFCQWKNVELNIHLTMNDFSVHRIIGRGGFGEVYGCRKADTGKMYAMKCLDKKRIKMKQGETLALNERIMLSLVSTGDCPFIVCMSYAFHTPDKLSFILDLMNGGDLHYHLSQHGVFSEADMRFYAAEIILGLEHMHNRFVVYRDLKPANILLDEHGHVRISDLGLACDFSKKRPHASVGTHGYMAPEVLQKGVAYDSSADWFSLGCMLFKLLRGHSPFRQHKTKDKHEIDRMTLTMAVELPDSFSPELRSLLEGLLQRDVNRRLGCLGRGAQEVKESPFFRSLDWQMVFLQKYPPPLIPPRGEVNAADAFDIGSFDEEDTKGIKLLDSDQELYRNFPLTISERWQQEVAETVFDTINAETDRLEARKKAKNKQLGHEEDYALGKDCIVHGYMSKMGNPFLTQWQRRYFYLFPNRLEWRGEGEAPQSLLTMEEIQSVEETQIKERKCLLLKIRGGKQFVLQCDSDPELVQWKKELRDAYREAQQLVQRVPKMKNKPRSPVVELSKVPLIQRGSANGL

binding result [1]: no binding
binding result [2]: no binding
B1: flag-tagged βARKnt (bovine GRK2 residues 50-145 with a carboxy-terminal flag-tag) (peptide)
chain: RGEVTFEKIFSQKLGYLLFRDFCLKHLEEAKPLVEFYEEIKKYEKLETEEERLVCSREIFDTYIMKELLACSHPFSKSAIEHVQGHLVKKQVPPDL
notes: An initiator Met is not described; also called βARKnt peptide; βARKnt-flag; not shown: carboxy-terminal flag-tag

— patent publication US20190134223A1 (TEMPLE UNIVERSITY OF THE COMMONWEALTH SYSTEM OF HIGHER …, published 2019)
